Test results reported in US20150064174A1 (BRIGHAM AND WOMEN S HOSPITAL, published 2015).

Target: T1, Epstein-Barr virus (EBV)-encoded glycoprotein 350 (gp350) (Epstein-Barr virus, UniProt P03200 1-860)
T1 construct: also called EBV gp350; column-purified EBV gp350 protein
T1 sequence: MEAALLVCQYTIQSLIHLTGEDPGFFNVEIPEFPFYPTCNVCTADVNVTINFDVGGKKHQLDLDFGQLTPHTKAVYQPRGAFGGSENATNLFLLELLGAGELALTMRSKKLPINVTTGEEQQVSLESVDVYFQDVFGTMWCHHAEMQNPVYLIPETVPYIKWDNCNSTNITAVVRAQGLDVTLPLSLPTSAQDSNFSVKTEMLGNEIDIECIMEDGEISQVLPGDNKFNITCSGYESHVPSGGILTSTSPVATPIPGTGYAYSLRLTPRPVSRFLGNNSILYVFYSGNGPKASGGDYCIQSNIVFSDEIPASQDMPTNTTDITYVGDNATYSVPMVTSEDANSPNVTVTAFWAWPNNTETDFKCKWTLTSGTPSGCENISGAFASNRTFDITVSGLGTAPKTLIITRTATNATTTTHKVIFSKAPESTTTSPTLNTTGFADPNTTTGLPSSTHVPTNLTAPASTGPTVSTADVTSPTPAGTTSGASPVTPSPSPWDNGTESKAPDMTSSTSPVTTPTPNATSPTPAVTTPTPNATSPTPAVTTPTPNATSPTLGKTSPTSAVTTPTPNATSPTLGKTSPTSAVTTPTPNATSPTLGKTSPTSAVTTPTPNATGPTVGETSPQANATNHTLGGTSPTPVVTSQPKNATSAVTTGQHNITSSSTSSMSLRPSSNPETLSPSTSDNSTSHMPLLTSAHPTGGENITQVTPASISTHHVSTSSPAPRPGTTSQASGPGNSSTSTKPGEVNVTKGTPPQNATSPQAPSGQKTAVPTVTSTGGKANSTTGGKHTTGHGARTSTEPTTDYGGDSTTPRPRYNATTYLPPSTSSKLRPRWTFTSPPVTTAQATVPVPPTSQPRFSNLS
Experiment: ELISA, plate-coated purified gp350, HEK293T supernatant, anti-human IgG-HRP

B1: recombinant humanized (chimeric) 72A1 antibody, heavy chain 2 and lambda light chain (Vh2+L) (antibody, V domains shown)
VH: DVQLVESGGGLVQPGGSRKLSCAASGFTFSSFGMHWVRQAPEKGLEWVAYISSGSSTLHYADTVKGRFTISRDNPKNTLFLQMTSLRSEDTAMYYCARWGNYPHYAMDYWGQGTSVTVSS
VL: QAVLTQESALTTSPGETVTLTCRSSTGAVTTSNYANWVQEKPDHLFTGLIGGTNNRVPGVPARFSGSLIGDKAALTITGAQTEDEAIYFCVLWHSNHWVFGGGTKLTVL
notes: Murine variable regions on human IgG1 (pCIRN) and human IgK (pEIG) constant regions; HEK293T supernatant
binding result: no binding (tested: supernatant diluted 1:2)
